{"source": "patent US20160024487", "key": {"[1]": {"target": "T1, Lys(Dnp)-ATNATWQPRIVGG-Lys(Abz)", "T1 chain": "KATNATWQPRIVGGK"}, "[2]": {"target": "T2, Lys(Dnp)-ATNATVSPRIVGG-Lys(Abz)", "T2 chain": "KATNATVSPRIVGGK"}, "[3]": {"target": "T3, Lys(Dnp)-ATNATMTPRIVGG-Lys(Abz)", "T3 chain": "KATNATMTPRIVGGK"}, "[4]": {"target": "T4, Lys(Dnp)-ATNATMFPRIVGG-Lys(Abz)", "T4 chain": "KATNATMFPRIVGGK"}, "[5]": {"target": "T5, Lys(Dnp)-ATNATMYPRIVGG-Lys(Abz)", "T5 chain": "KATNATMYPRIVGGK"}, "[6]": {"target": "T6, Lys(Dnp)-ATNATFHPRIVGG-Lys(Abz)", "T6 chain": "KATNATFHPRIVGGK"}, "[7]": {"target": "T7, Lys(Dnp)-ATNATMIPRIVGG-Lys(Abz)", "T7 chain": "KATNATMIPRIVGGK"}, "[8]": {"target": "T8, Lys(Dnp)-ATNATPKPRIVGG-Lys(Abz)", "T8 chain": "KATNATPKPRIVGGK"}, "[9]": {"target": "T9, Lys(Dnp)-ATNATVWPRIVGG-Lys(Abz)", "T9 chain": "KATNATVWPRIVGGK"}, "[10]": {"target": "T10, Lys(Dnp)-ATNATFVPRIVGG-Lys(Abz)", "T10 chain": "KATNATFVPRIVGGK"}, "[11]": {"target": "T11, Lys(Dnp)-ATNATLRPRIVGG-Lys(Abz)", "T11 chain": "KATNATLRPRIVGGK"}, "[12]": {"target": "T12, Lys(Dnp)-ATNATWRPRIVGG-Lys(Abz)", "T12 chain": "KATNATWRPRIVGGK"}, "[13]": {"target": "T13, Lys(Dnp)-ATNATWSPRIVGG-Lys(Abz)", "T13 chain": "KATNATWSPRIVGGK"}, "[14]": {"target": "T14, Lys(Dnp)-ATNATPYPRIVGG-Lys(Abz)", "T14 chain": "KATNATPYPRIVGGK"}, "[15]": {"target": "T15, Lys(Dnp)-ATNATPFPRIVGG-Lys(Abz)", "T15 chain": "KATNATPFPRIVGGK"}, "[16]": {"target": "T16, Lys(Dnp)-ATNATIKPRIVGG-Lys(Abz)", "T16 chain": "KATNATIKPRIVGGK"}, "[17]": {"target": "T17, Lys(Dnp)-ATNATYKPRIVGG-Lys(Abz)", "T17 chain": "KATNATYKPRIVGGK"}, "[18]": {"target": "T18, Lys(Dnp)-ATNATPLPRIVGG-Lys(Abz)", "T18 chain": "KATNATPLPRIVGGK"}, "[19]": {"target": "T19, Lys(Dnp)-ATNATAMPRIVGG-Lys(Abz)", "T19 chain": "KATNATAMPRIVGGK"}, "[20]": {"target": "T20, Lys(Dnp)-ATNATTMPRIVGG-Lys(Abz)", "T20 chain": "KATNATTMPRIVGGK"}, "[21]": {"target": "T21, Lys(Dnp)-ATNATWVPRIVGG-Lys(Abz)", "T21 chain": "KATNATWVPRIVGGK"}, "[22]": {"target": "T22, Lys(Dnp)-ATNATHDPRIVGG-Lys(Abz)", "T22 chain": "KATNATHDPRIVGGK"}, "[23]": {"target": "T23, Lys(Dnp)-ATNATQYPRIVGG-Lys(Abz)", "T23 chain": "KATNATQYPRIVGGK"}, "[24]": {"target": "T24, Lys(Dnp)-ATNATEMPRIVGG-Lys(Abz)", "T24 chain": "KATNATEMPRIVGGK"}, "[25]": {"target": "T25, Lys(Dnp)-ATNATALPRIVGG-Lys(Abz)", "T25 chain": "KATNATALPRIVGGK"}, "[26]": {"target": "T26, Lys(Dnp)-ATNATQHPRIVGG-Lys(Abz)", "T26 chain": "KATNATQHPRIVGGK"}, "[27]": {"target": "T27, Lys(Dnp)-ATNATKWPRIVGG-Lys(Abz)", "T27 chain": "KATNATKWPRIVGGK"}, "[28]": {"target": "T28, Lys(Dnp)-ATNATANPRIVGG-Lys(Abz)", "T28 chain": "KATNATANPRIVGGK"}, "[29]": {"target": "T29, Lys(Dnp)-ATNATQRPRIVGG-Lys(Abz)", "T29 chain": "KATNATQRPRIVGGK"}, "[30]": {"target": "T30, Lys(Dnp)-ATNATISPRIVGG-Lys(Abz)", "T30 chain": "KATNATISPRIVGGK"}, "[31]": {"target": "T31, Lys(Dnp)-ATNATYNPRIVGG-Lys(Abz)", "T31 chain": "KATNATYNPRIVGGK"}, "[32]": {"target": "T32, Lys(Dnp)-ATNATLEPRIVGG-Lys(Abz)", "T32 chain": "KATNATLEPRIVGGK"}, "[33]": {"target": "T33, Lys(Dnp)-ATNATKHPRIVGG-Lys(Abz)", "T33 chain": "KATNATKHPRIVGGK"}, "[34]": {"target": "T34, Lys(Dnp)-ATNATSLPRIVGG-Lys(Abz)", "T34 chain": "KATNATSLPRIVGGK"}, "[35]": {"target": "T35, Lys(Dnp)-ATNATKEPRIVGG-Lys(Abz)", "T35 chain": "KATNATKEPRIVGGK"}, "[36]": {"target": "T36, Lys(Dnp)-ATNATEQPRIVGG-Lys(Abz)", "T36 chain": "KATNATEQPRIVGGK"}, "[37]": {"target": "T37, Lys(Dnp)-ATNATTLPRIVGG-Lys(Abz)", "T37 chain": "KATNATTLPRIVGGK"}, "[38]": {"target": "T38, Lys(Dnp)-ATNATKMPRIVGG-Lys(Abz)", "T38 chain": "KATNATKMPRIVGGK"}, "[39]": {"target": "T39, Lys(Dnp)-ATNATERPRIVGG-Lys(Abz)", "T39 chain": "KATNATERPRIVGGK"}, "[40]": {"target": "T40, Lys(Dnp)-ATNATRRPRIVGG-Lys(Abz)", "T40 chain": "KATNATRRPRIVGGK"}, "[41]": {"target": "T41, Lys(Dnp)-ATNATEGPRIVGG-Lys(Abz)", "T41 chain": "KATNATEGPRIVGGK"}}}
{"protein": "Human plasma purified Factor Xa (protein) chain 1: ANSFLEEMKKGHLERECMEETCSYEEAREVFEDSDKTNEFWNKYKDGDQCETSPCQNQGKCKDGLGEYTCTCLEGFEGKNCELFTRKLCSLDNGDCDQFCHEEQNSVVCSCARGYTLADNGKACIPTGPYPCGKQTLER chain 2: IVGGQECKDGECPWQALLINEENEGFCGGTILSEFYILTAAHCLYQAKRFKVRVGDRNTEQEEGGEAVHEVEVVIKHNRFTKETYDFDIAVLRLKTPITFRMNVAPACLPERDWAESTLMTQKTGIVSGFGRTHEKGRQSTRLKMLEVPYVDRNSCKLSSSFIITQNMFCAGYDTKQEDACQGDSGGPHVTRFKDTYFVTGIVSWGEGCARKGKYGIYTKVTAFLKWIDRSMKTRGLPKAKSHAPEVITSSPLK", "values": [{"measurement": "FXa kcat/KM", "setting": "[1]", "value": 37, "unit": "M⁻¹ s⁻¹"}, {"measurement": "FXa kcat/KM", "setting": "[2]", "value": 88, "unit": "M⁻¹ s⁻¹"}, {"measurement": "FXa kcat/KM", "setting": "[3]", "value": 97, "unit": "M⁻¹ s⁻¹"}, {"measurement": "FXa kcat/KM", "setting": "[4]", "value": 55, "unit": "M⁻¹ s⁻¹"}, {"measurement": "FXa kcat/KM", "setting": "[5]", "value": 110, "unit": "M⁻¹ s⁻¹"}, {"measurement": "FXa kcat/KM", "setting": "[6]", "value": 150, "unit": "M⁻¹ s⁻¹"}, {"measurement": "FXa kcat/KM", "setting": "[7]", "value": 220, "unit": "M⁻¹ s⁻¹"}, {"measurement": "FXa kcat/KM", "setting": "[8]", "value": 74, "unit": "M⁻¹ s⁻¹"}, {"measurement": "FXa kcat/KM", "setting": "[9]", "value": 190, "unit": "M⁻¹ s⁻¹"}, {"measurement": "FXa kcat/KM", "setting": "[10]", "value": 71, "unit": "M⁻¹ s⁻¹"}, {"measurement": "FXa kcat/KM", "setting": "[11]", "value": 610, "unit": "M⁻¹ s⁻¹"}, {"measurement": "FXa kcat/KM", "setting": "[12]", "value": 800, "unit": "M⁻¹ s⁻¹"}, {"measurement": "FXa kcat/KM", "setting": "[13]", "value": 52, "unit": "M⁻¹ s⁻¹"}, {"measurement": "FXa kcat/KM", "setting": "[14]", "value": 83, "unit": "M⁻¹ s⁻¹"}, {"measurement": "FXa kcat/KM", "setting": "[15]", "value": 69, "unit": "M⁻¹ s⁻¹"}, {"measurement": "FXa kcat/KM", "setting": "[16]", "value": 120, "unit": "M⁻¹ s⁻¹"}, {"measurement": "FXa kcat/KM", "setting": "[17]", "value": 25, "unit": "M⁻¹ s⁻¹"}]}
{"protein": "Human plasma purified Factor Xa (Molecular Innovations, Inc) (protein) chain 1: ANSFLEEMKKGHLERECMEETCSYEEAREVFEDSDKTNEFWNKYKDGDQCETSPCQNQGKCKDGLGEYTCTCLEGFEGKNCELFTRKLCSLDNGDCDQFCHEEQNSVVCSCARGYTLADNGKACIPTGPYPCGKQTLER chain 2: IVGGQECKDGECPWQALLINEENEGFCGGTILSEFYILTAAHCLYQAKRFKVRVGDRNTEQEEGGEAVHEVEVVIKHNRFTKETYDFDIAVLRLKTPITFRMNVAPACLPERDWAESTLMTQKTGIVSGFGRTHEKGRQSTRLKMLEVPYVDRNSCKLSSSFIITQNMFCAGYDTKQEDACQGDSGGPHVTRFKDTYFVTGIVSWGEGCARKGKYGIYTKVTAFLKWIDRSMKTRGLPKAKSHAPEVITSSPLK", "values": [{"measurement": "FXa kcat/KM", "setting": "[18]", "value": 330, "unit": "M⁻¹ s⁻¹"}, {"measurement": "FXa kcat/KM", "setting": "[19]", "value": 460, "unit": "M⁻¹ s⁻¹"}, {"measurement": "FXa kcat/KM", "setting": "[20]", "value": 13, "unit": "M⁻¹ s⁻¹"}, {"measurement": "FXa kcat/KM", "setting": "[21]", "value": 86, "unit": "M⁻¹ s⁻¹"}, {"measurement": "FXa kcat/KM", "setting": "[22]", "value": 86, "unit": "M⁻¹ s⁻¹"}, {"measurement": "FXa kcat/KM", "setting": "[23]", "value": 200, "unit": "M⁻¹ s⁻¹"}, {"measurement": "FXa kcat/KM", "setting": "[24]", "value": 13, "unit": "M⁻¹ s⁻¹"}, {"measurement": "FXa kcat/KM", "setting": "[25]", "value": 300, "unit": "M⁻¹ s⁻¹"}, {"measurement": "FXa kcat/KM", "setting": "[26]", "value": 550, "unit": "M⁻¹ s⁻¹"}, {"measurement": "FXa kcat/KM", "setting": "[27]", "value": 130, "unit": "M⁻¹ s⁻¹"}, {"measurement": "FXa kcat/KM", "setting": "[28]", "value": 78, "unit": "M⁻¹ s⁻¹"}, {"measurement": "FXa kcat/KM", "setting": "[29]", "value": 660, "unit": "M⁻¹ s⁻¹"}, {"measurement": "FXa kcat/KM", "setting": "[30]", "value": 610, "unit": "M⁻¹ s⁻¹"}, {"measurement": "FXa kcat/KM", "setting": "[31]", "value": 50, "unit": "M⁻¹ s⁻¹"}, {"measurement": "FXa kcat/KM", "setting": "[32]", "value": 690, "unit": "M⁻¹ s⁻¹"}, {"measurement": "FXa kcat/KM", "setting": "[33]", "value": 56, "unit": "M⁻¹ s⁻¹"}, {"measurement": "FXa kcat/KM", "setting": "[34]", "value": 82, "unit": "M⁻¹ s⁻¹"}, {"measurement": "FXa kcat/KM", "setting": "[35]", "value": 62, "unit": "M⁻¹ s⁻¹"}, {"measurement": "FXa kcat/KM", "setting": "[36]", "value": 11, "unit": "M⁻¹ s⁻¹"}, {"measurement": "FXa kcat/KM", "setting": "[37]", "value": 140, "unit": "M⁻¹ s⁻¹"}, {"measurement": "FXa kcat/KM", "setting": "[38]", "value": 140, "unit": "M⁻¹ s⁻¹"}, {"measurement": "FXa kcat/KM", "setting": "[39]", "value": 300, "unit": "M⁻¹ s⁻¹"}, {"measurement": "FXa kcat/KM", "setting": "[40]", "value": 900, "unit": "M⁻¹ s⁻¹"}, {"measurement": "FXa kcat/KM", "setting": "[41]", "value": 18, "unit": "M⁻¹ s⁻¹"}]}
